The values that follow come from patent US20210403552A1 (SHANGHAI GENBASE BIOTECHNOLOGY, published 2021).

Experiment [1] concerns the target T1, human CLDN18.2 (human).
T1 construct: over-expressed on HEK293T or OCUM-1 cells by lentivirus; KATO-III and NUGC4 gastric cancer cells express it naturally; also called hCLDN18.2; hCLDNA18.2
Nature of the experiment: imaging cytometry (% fluorescent cells), OCUM1-hCLDN18.2 cells. The text has this:
(§1) HEK293T-hCLDN18.2 and OCUM-1-hCLDN18.2 expressing human CLDN18.2 (hCLDN18.2), or HEK293T-mCLDN18.2 expressing mouse CLDN18.2 (mCLDN18.2) and the corresponding negative control cell line HEK293T were used; or HEK293T-hCLDN18.1 and CHOS-hCLDN18.1 expressing human CLDN18.1 (hCLDN18.1) were used. DyLight488 goat anti-mouse IgG (Abcam, Catalog No. ab97015) or DyLight488 goat anti-human IgG (Abcam, Catalog No. ab97003) was used as secondary antibody. Binding curves were generated by using the following method.
(§2) 10,000 cells were plated in 100 μL of DMEM containing 10% FBS per well in a flat-bottomed 96-well plate. After the cells adhered or were settled to the bottom of the wells overnight, the supernatant was removed on the next day. 3-Fold gradient dilution of antibody was performed by diluting 1/3 of the total volume (i.e., 100 μL) in 200 μL of DMEM. 100 μL of the diluted antibody (the supernatants of fused clones or subclones was used in the screening) was added to each well of the cell plate, 100 μL of DMEM was added to the corresponding negative control well, and incubation was carried out for 1 hour at room temperature. After removing the supernatant, 100 μL of secondary antibody (5 μg/mL, diluted in DMEM) was added to each well, and incubated at room temperature for 0.5 hours. The supernatant was removed after staining, followed by washing with PBS once. 100 μL of PBS was added to each well, and then reading was carried out on the cytometer.
(§3) A full-field scanning cytometer (Nexcelom, Celigo® Image Cytometer) was used to measure the readings of the experimental plate. During the measurement, high-speed scanning imaging of the cells in the well was simultaneously performed in the green fluorescent channel corresponding to the secondary antibody and in the bright field channel. The cells that bound the antibody were counted in the image obtained from the green fluorescent channel under the parameters set in accordance with the morphology and fluorescence intensity of the fluorescently labeled cells, and the adhered cells were counted in the image obtained from the bright field channel under the parameters set in accordance with the morphology of the cells.

The target in experiment [2] is T1, human CLDN18.2. Description: imaging cytometry (% fluorescent cells), HEK293-hCLDN18.2 cells.
Description: as §1, §2, §3

For a further experiment, the target named is T2, mouse CLDN18.2 (mouse, UniProt P56857 10-264).
T2 construct: over-expressed on HEK293T cells by lentivirus; also called mCLDN18.2; murine CLDN18.2
T2 chain: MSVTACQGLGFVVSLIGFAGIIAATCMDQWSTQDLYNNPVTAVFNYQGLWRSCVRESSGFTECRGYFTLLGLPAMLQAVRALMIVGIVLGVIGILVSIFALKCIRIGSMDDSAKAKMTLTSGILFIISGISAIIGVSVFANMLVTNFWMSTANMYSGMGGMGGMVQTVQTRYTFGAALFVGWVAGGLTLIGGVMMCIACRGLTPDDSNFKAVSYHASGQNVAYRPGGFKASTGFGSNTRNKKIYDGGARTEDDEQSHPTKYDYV
Nature of the experiment: imaging cytometry (% fluorescent cells), HEK293-mCLDN18.2 cells.
Description: as §1, §2, §3

A further experiment has as its target T3, human CLDN18.1 (human, UniProt P56856 1-261).
T3 construct: over-expressed on HEK293T or CHOS cells by lentivirus; also called hCLDN18.1
Description: imaging cytometry, CHOS-hCLDN18.1 cells.
Description: as §1, §2, §3

The target of experiment [3] is T1, human CLDN18.2. Nature of the experiment: imaging cytometry (% fluorescent cells), HEK293T-hCLDN18.2 cells. As to the method:
as §2
as §3, with “cells. […] The data analysis was performed using GraphPad.” for “cells.”

The target in experiment [4] is T1, human CLDN18.2. Description: cell-based or functional assay.
Experiment [5] has as its target T1, human CLDN18.2. Description: cell-based or functional assay. This is another data set of the same source.
Experiment [6] addresses T1, human CLDN18.2. Nature of the experiment: cell-based or functional assay. The source holds these as a separate data set.

T3 sequence (P56856 whole entry): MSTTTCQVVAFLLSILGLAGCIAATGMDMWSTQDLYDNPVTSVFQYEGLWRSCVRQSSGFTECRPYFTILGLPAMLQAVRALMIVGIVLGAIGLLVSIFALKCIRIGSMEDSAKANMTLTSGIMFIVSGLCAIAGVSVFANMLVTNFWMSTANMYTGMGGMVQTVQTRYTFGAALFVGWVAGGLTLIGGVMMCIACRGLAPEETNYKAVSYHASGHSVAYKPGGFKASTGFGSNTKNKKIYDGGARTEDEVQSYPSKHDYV

B1: 2F12 (antibody, V domains shown)
VH: EVQLVESGGGLVKPGGSLKLSCAASGFTFSDYGIHWVRQAPEKGLEWVAYISSGSSTIYYADTVKGRFTISRDNAKNTLFLQMTSLRSEDTAIYYCAKWDRGNCFDYWGQGTTLTVSS
VL: DIVLTQSPSSLTVTAGEKVTMSCKSSQSLLNSGNQKKYLTWYQQKVGQPPKLLIYWASIRECGVPDRFTGSGSGTDFILTISSVQAEDLAVYYCQNAYSYPLTFGAGTKLELK
notes: murine monoclonal antibody purified from hybridoma culture supernatant
In the case of B1, the results for the concentration for a half-maximal effect (EC50) with human CLDN18.2 [1], in the experiment with human CLDN18.2 [2] and in the experiment with mouse CLDN18.2 were 0.186 µg/mL, 0.041 µg/mL and 0.036 µg/mL, respectively. Besides, the binding result in the experiment with human CLDN18.1 is recorded as “no binding”.

B2: 10B11 (antibody, V domains shown)
VH: QVQMKESGAELVKPGASVKISCKASGYAFSTYWMDWVKQRPGKGLEWIGQIYPGNGDTNYNGKFKGKATLTADKSSSTADMQLSSLTSEDSAVYFCARLGYGNSFTYWGQGTLVTVSA
VL: DIQVTQSPSSLTVTAGEKVTMSCKSSQSLLNSGNQKNYLTWYQQKPGQPPKLLIYWASTRESGVPDRFTGSGFGTDFTLTISSVQAEDLAVYYCQNAYFYPFTFGSGTKLEIK
notes: as for B1
Take B2: the EC50 in the experiment with human CLDN18.2 [1] was determined as 0.135 µg/mL; in the experiment with human CLDN18.2 [2], 0.038 µg/mL; with mouse CLDN18.2, 0.035 µg/mL. Moreover, the binding result in the experiment with human CLDN18.1 is “no binding”.

B3: 44A8 (antibody, V domains shown)
VH: EVRLQQSGPELVKPGASVKMSCKASGYTFTDYNMHWVKQSHGKSLEWIGYINPKNGGIRYNQKFTGKATLTVNKSSSTAYMELRSLTSEDSAVYYCARGGYYGNTLDNWGQGTSVTVSS
VL: DIVMTQSPSSLTLTAGEKVTMSCKSSQSLLNSGNQKNYLTWYQQKPGQPPKLLIYWASTSESGVPDRFTGSGSGTDFTLTISSVQAEDLAIYYCQNAYFYPWTFGGGTKLEIK
notes: as for B1
As to B3, the EC50 is 0.097 µg/mL with human CLDN18.2 [1], 0.034 µg/mL in the experiment with human CLDN18.2 [2] and 0.026 µg/mL in the experiment with mouse CLDN18.2. In the experiment with human CLDN18.1, the binding result is reported as “no binding”.

B4: 37B1 (antibody, V domains shown)
VH: EVRLQQSGPELVKPGASVKMSCKASGYSFTDYNMHWVKQSHGKSPEWVGYINPNKGGTGYNQKFKGKATLTVNKSSSTANMELRSLTSEDSAVYYCARIWYGNSFAYWGQGTLVTVSA
VL: DVVMTQSPSSLTVTAGEKVTMSCKSSQSLLNSGNQKNYLTWYQQKPGQPPKLLIYWASTRESGVPDRFTGSGSGTDFTLTISSVQAEDLAVYFCQNDYFYPFTFGSGTKLEIK
notes: as for B1
In the case of B4, the EC50 in the experiment with human CLDN18.2 [1] is 0.146 µg/mL; with human CLDN18.2 [2] it was 0.04 µg/mL; with mouse CLDN18.2, 0.032 µg/mL. For the same molecule, in the experiment with human CLDN18.1, the binding result is “no binding”.

B5: 27B5 (antibody, V domains shown)
VH: QVQLQQPGTELVKPGASVKLSCKASGYTFTSYWMHWVKQRPGQGLEWIGNIHPSNGGSNHNEKFKSKATLTVDKSSSTAYMQLSSLTSEDSAVYYCAPIYYGNSLAYWGHGTLVTVSA
VL: DVVMTQSPSSLTVTAGEKVTMSCKSSQSLLNSGNQKNYLTWYQQKPGQPPKLLLYWASTRESGVPDRFTGSGSGTDFTLTISSVQAEDLAVYYCQNSYFYPFTFGSGTKLEIK
notes: as for B1
Turning to B5, the EC50 was found to be 0.142 µg/mL with human CLDN18.2 [1], 0.041 µg/mL in the experiment with human CLDN18.2 [2] and 0.033 µg/mL with mouse CLDN18.2. Besides, in the experiment with human CLDN18.1, the binding result is reported as “no binding”.

B6: 44F7 (antibody, V domains shown)
VH: QVQLQQSGAELVRPGASVKMSCKASGYTFTSYNMHWVKQAPRQGLEWIGTIYPGNGDTSYNQKFKGKATLTVDKSSSTAYMQLSSLTSEDSAVYFCARGGYYGNSLDYWGQGTTLTVSS
VL: DIQMTQSPSSLTVTAGEKVTMSCKSSQSLLNSGNQKNYLTWYQQKPGQPPKLLIYWASTRESGVPDRFTGSGSGTDFTLTISSVQAEDLAVYYCQNAYYYPFTFGSGTKLEIK
notes: as for B1
In the case of B6, the EC50 with human CLDN18.2 [1] worked out at 0.092 µg/mL; with human CLDN18.2 [2], 0.028 µg/mL; in the experiment with mouse CLDN18.2 it was 0.026 µg/mL. Besides, in the experiment with human CLDN18.1, the binding result is “no binding”.

B7: 5F9-chIgG1 (antibody, V domains shown)
VH: QVQLQQSGAELVKPGASVKLSCKASGYTFTSYWMHWVKQRPGQGLEWIGMIHPNSVSTNYNEKFKSKATLTVDKSSSTAYMQLSSLTSEDSAVYYCAVYFDYWGQGTTLTVSS
VL: DIQVTQSPSSLSASLGERVSLTCRASQDIGSSLNWLQQEPDGTIKRLIYASSSLNSGVPKRFSVSRSGSDYSLTISSLESEDFVDYYCLQYATSPPTFGGGTKLEIKR
notes: human-mouse chimeric antibody, human IgG1/kappa constant regions
With B7, the EC50 with human CLDN18.2 [3] came out at 0.283 µg/mL. Also, in the experiment with human CLDN18.2 [4], the “CDC EC50, HEK293T-hCLDN18.2 target cells, human serum” value (shortened to “CDC EC50”) stood at 5.25 µg/mL. In the experiment with human CLDN18.2 [5], the “ADCC EC50, HEK293T-hCLDN18.2 target cells, human PBMC effectors” value (“ADCC EC50” below) was determined as 0.0197 µg/mL. In addition, the “Internalization percentage (%), HEK293T-hCLDN18.2 cells, flow cytometry, 10 µg/mL antibody” value with human CLDN18.2 [6] amounted to 9.3%.

B8: 1D10-chIgG1 (antibody, V domains shown)
VH: QVQLQQPGAELVKPGASVKLSCKASGYTFTSYWMHWVKQRPGQGLEWIGMIYPNSGSINYNEKFKNKATLTVDKSSSTAYMQLSSLTSEDSAVYFCSVYFDYWGQGTTLTVSS
VL: DIQGTQSPSSLSASLGERVSLTCRASQDIGSSLNWLQQEPDGTIKRLIYATSSLDSGVPKRFSVSRSGSDYSLTISSLESEDFVDYYCLQYASSPPTFGGGTKLEIKR
On to B8, for which, in the experiment with human CLDN18.2 [6], the “Internalization percentage (%), HEK293T-hCLDN18.2 cells, flow cytometry, 10 µg/mL antibody” value was determined as 28.7%.

B9: 9F3-chIgG1 (antibody, V domains shown)
VH: EVRLQQSGPELVKPGASVKIPCKASGYKFTDYNMDWVKQSHGKSLEWIGEINPNNGGTIYNQKFKGKATLTVDKSSSTAYMELRSLTSEDTAVYYCARIYYGNSFAYWGQGTLVTVSS
VL: DIVMTQSPSSLTVTAGEKVTMSCKSSQSLLNSGNLKNYLTWYQQKPGQPPKLLIYWASTRESGVPDRFTGSGSGTDFTLTISSVQAEDLAVYYCQNDYFYPLTFGAGTKLEIKR
notes: as for B7
As for B9, a half-maximal response with human CLDN18.2 [3] (EC50) required 0.104 µg/mL. Besides, the “CDC EC50” value in the experiment with human CLDN18.2 [4] was 1.86 µg/mL. Further, the “ADCC EC50” value with human CLDN18.2 [5] is 0.008 µg/mL.

B10: 10B11-chIgG1 (antibody, V domains shown)
VH: QVQMKESGAELVKPGASVKISCKASGYAFSTYWMDWVKQRPGKGLEWIGQIYPGNGDTNYNGKFKGKATLTADKSSSTADMQLSSLTSEDSAVYFCARLGYGNSFTYWGQGTLVTVSA
VL: DIQVTQSPSSLTVTAGEKVTMSCKSSQSLLNSGNQKNYLTWYQQKPGQPPKLLIYWASTRESGVPDRFTGSGFGTDFTLTISSVQAEDLAVYYCQNAYFYPFTFGSGTKLEIKR
notes: as for B7
On to B10, for which, in the experiment with human CLDN18.2 [3], it took 0.03 µg/mL to reach a half-maximal effect (EC50). In addition, the “CDC EC50” value with human CLDN18.2 [4] came to 1.65 µg/mL. Moreover, the “ADCC EC50” value with human CLDN18.2 [5] was 0.001 µg/mL.

B11: 9F3 (antibody, V domains shown)
VH: EVRLQQSGPELVKPGASVKIPCKASGYKFTDYNMDWVKQSHGKSLEWIGEINPNNGGTIYNQKFKGKATLTVDKSSSTAYMELRSLTSEDTAVYYCARIYYGNSFAYWGQGTLVTVSS
VL: DIVMTQSPSSLTVTAGEKVTMSCKSSQSLLNSGNLKNYLTWYQQKPGQPPKLLIYWASTRESGVPDRFTGSGSGTDFTLTISSVQAEDLAVYYCQNDYFYPLTFGAGTKLEIK
notes: as for B1
Turning to B11, the half-maximal effective concentration (EC50) with human CLDN18.2 [1] is 0.15 µg/mL; with human CLDN18.2 [2], 0.053 µg/mL; with mouse CLDN18.2, 0.043 µg/mL. In addition, in the experiment with human CLDN18.1, the binding result is listed as “no binding”.

As a reminder, the EC50 is the midpoint of the concentration-response curve. A lower EC50 goes with a more potent agent.
